SMILES strings stand for the structures. Like-named read-outs stand apart in the source and are kept apart here. Positions of bridges follow the written chain, without caps; N, C: chain ends. Non-standard residues stand in square brackets, D forms with d. Residues, ends and D or L forms follow the SMILES beside them. *: point of attachment. X1 = C=Cc1c(C)c2cc3nc(c(CC(=O)O)c4[nH]c(cc5nc(cc1[nH]2)C(C)=C5CC)c(C)c4C(=O)O)[C@@H](CCC(=O)*)[C@@H]3C A value given as a limit tells only on which side of the number the result lay.

The results in this text go back to article PMC4128677, “Somatostatin Analogues for Receptor Targeted Photodynamic Therapy” (PLoS ONE, 2014).

A short description of series [1]: Photobleaching under 652 nm irradiation in PBS. Format: physicochemical. Here is the method:
Photobleaching measurements. The loss of photosensitizer absorbance and fluorescence during irradiation was used to monitor photobleaching. Solutions of Ce6 and Ce6-conjugates were prepared in PBS pH = 7.4. The concentration of photosensitizers were adjusted so that all absorb the same number of photons at irradiated region (O.D. = 0.014 at the λirr. = 652 nm (Biolitec pharma, UK). Data was acquired in quartz cuvettes in aerobic conditions using stirring under uniform, measured irradiation at 5 mWcm^-2. At intervals, the cuvette was removed from magnetic stirrer and absorption and fluorescence emission spectrum (λexc = 405 nm) acquired. The initial absorption bleaching rate constants (kblA) for Ce6 and conjugates were evaluated as reported.

A further series concerns the target T1, sst2 (Homo sapiens, UniProt P30874).
T1 construct: expressed in transfected cells; host or cells: K562 (human erythroleukemic) cells stably transfected with LZRS-lyt2-IRES-sst2; membrane preparations
Briefly: Displacement of [125I]-SS14 binding, membrane preparations of K562 sst2+ cells. The procedure:
Copy DNA of the human sst2 receptor was merged into a LZRS-lyt2-IRES plasmid background (lyt2 being the mouse CD8 receptor). The calcium precipitation method was used to transfect non-adherent K562 cells with the LZRS-lyt2-IRES-sst2. Expression of lyt2 was evaluated by means of FACS analysis using FITC labeled anti-mouse CD8 antibody (BD PharMingen, Netherlands), 1∶160 diluted in FACS-buffer. Clones were grown form Lyt2 positive isolated cells. Vital clones were cultured and tested in time for stability of sst2 receptor expression, by means of both FACS analysis (using FITC labeled octreotate 200 nM) as well as sst2 mRNA expression by RT-PCR as previously described. […] K562 cells were grown in RPMI 1640 containing L-glutamine, 10% heat-inactivated FCS, 50 µg/ml penicillin and 50 µg/ml streptomycin, and were maintained in an incubator at 37°C in an humidified atmosphere of 5% CO2.
The binding potency of Ce6-conjugates to sst2 on K562 sst2 ^+ cells was evaluated on cell membrane preparations.
On the technique in general: Loss of bound radioactivity is the signal in a displacement assay; it reports binding, not function.

The nature of series [2]: pH titration of fluorescence/absorbance (pKa). It is filed as physicochemical. The procedure: pH measurements. The pH titration of PBS was performed with HNO3 and NaOH over pH 4.0-8.5. The final concentration of Ce6 and Ce6-conjugates in solution was 0.8 µM. The pH was measured by Sentron pH meter (Sentron Europe, NL) and the absorption and fluorescence emission (λexc = 408 nm) profiles of solutions were recorded. The inflection point of titration curves (pKa) were evaluated as reported. Briefly, the results of fluorescence titrations are presented in terms of a plot of fluorescence intensity as a function of pH with the constant concentration of the compound used throughout measurements. However, variations of fluorescence intensity are due to at least two contributions: the changes of molar extinction coefficient (differed absorbed intensity) and the changes of quantum efficiency with pH. To eliminate the influence of the molar extinction coefficient variations, the ratio of fluorescence intensity at the peak position to the absorbance at the excitation wavelength was plotted, followed by sigmoidal function fitting procedure (Figures S2-S4).

The nature of series [3]: 1-Octanol/PBS partition coefficient. It is filed as physicochemical. The procedure:
Partition coefficient. Stock solutions of Ce6 and conjugates (0.6 mM) were prepared in DMSO. Lipophilicity was characterized by their partition coefficient Poct/buffer = Coct/Cbuffer between two solvents 1-octanol (oct) and PBS, pH = 7.4 (buffer). Measurements were carried out in duplicates as described by Cunderlikova et al.

Series [4] has as its system K562 sst2+ cells. Briefly: In vitro PDT phototoxicity, K562 sst2+ cells. The settings on record: K562 sst2+; 5 J.cm^−2, 652 nm. It is filed as cell-based, human. The procedure: (§1) In vitro PDT experiments were performed to determine the phototoxicity of free Ce6 and conjugates. K562 sst2+ and WT cells were seeded in L-polylysine-coated (10 µg/ml) 96-well (8×10^3/well) and 24-well (4×10^4/well) and incubated overnight in 5% CO2 at 37°C. […] After incubation, cells were washed. Fresh serum-free medium was added, and cells were illuminated with 652 nm to a dose from 0.5 to 5 J cm^−2 at 5 mW.cm^−2. Thereafter, serum-containing medium was added and cells were allowed to grow for an additional 3 days in 5% FCS medium. Toxicity was determined by: measurement of DNA contents using the bisbenzimide fluorescent dye (Hoechst 33258, Boehring Diagnostics, CA, USA) and measurement of mitochondrial dehydrogenase cleavage of WST-1 reagent (Roche Diagnostics, Germany), [39]. Experiments were done in triplicates.

Series [5] in a line: Steady-state absorption and fluorescence in PBS. It is filed as physicochemical. The settings on record: PBS pH = 7.4. The procedure:
Steady-State Fluorescence and Absorption Measurements. The fluorescence quantum yields (ΦF) of Ce6 and conjugates in PBS pH 7.4 were determined by a relative method. Ce6 in the buffer at pH 7.4 with the quantum yield of 0.18 [24,32,33] was used as a reference.
The absorption profile of Ce6 and conjugate in PBS of concentration (0.06–1µM) was recorded in Shimadzu spectrophotometer (UV-2101 PC, Duisburg, Germany).
The fluorescence emission of photosensitizers was recorded in a Perkin-Elmer spectrofluorimeter (LS 50B, Massachussetts, USA). Light at 408 nm was used for excitation. The concentration range of compounds matched to the O.D. up to 0.1.

Series [6] is described as follows: Singlet oxygen quantum yield (SOSGR photooxidation). Format: physicochemical. The settings on record: PBS pH = 7.4; SOSGR 1 µM; relative to ΦΔ = 0.64 of Ce6; in duplicate. The procedure: Singlet Oxygen Quantum Yield Measurements. Photooxidation of Singlet Oxygen Sensor Green Reagent (SOSGR) (Molecular Probes, NL) was used to determine the singlet oxygen formation by Ce6 and Ce6-conjugates. We used SOSGR because of its high selectivity for singlet oxygen and low sensitivity to hydroxyl radicals/superoxides. Stock solution of SOSGR (5 mM) was prepared in methanol. The final concentration of SOSGR within the photosensitizer solution in PBS pH 7.4 was 1 µM. The irradiation was performed the same as for photobleaching measurements described above. The singlet oxygen quantum yields (Φ?) of conjugates in PBS were determined in duplicate by a relative method with a Φ? = 0.64 of Ce6 in the PBS at pH 7.4 as reference.

A further series deals with K562 WT cells. Briefly: In vitro PDT phototoxicity, K562 WT cells. The settings on record: 5 J.cm^−2, 652 nm; with or without Octreotide co-treatment. It is filed as cell-based, human. Here is the method: as §1
For series [7], the system named is K562 sst2+ cells. Briefly: Cellular uptake in K562 sst2+ and WT cells. Format: cell-based, human. The settings on record: 1 µM; serum-free and 5% FCS medium; fluorescence of lysate, λexc = 405 nm. The procedure: Stock solutions of Ce6 and Ce6-conjugates (1 mM) were dissolved in 80% DMSO and were stored in the dark at −20°C. Before experiments, the solutions were diluted to a concentration of 0.1 mM in 20% DMSO. K562 sst2+ or WT (3×10^5) in 1 ml RPMI 1640 serum-free or supplemented with 5% FCS were incubated with Ce6 or with conjugate (1 µM) for 15 min to 24 h in the dark at 37°C. After incubation, the cells were centrifuged, cell pellet dissolved in 2% SDS and fluorescence emission spectra (λexc = 405 nm) recorded. Photosensitizer concentrations were calculated in triplicate according to a calibration curve generated by mixing a known concentration of photosensitizer with a lysated control samples.

T1 sequence (P30874 whole entry): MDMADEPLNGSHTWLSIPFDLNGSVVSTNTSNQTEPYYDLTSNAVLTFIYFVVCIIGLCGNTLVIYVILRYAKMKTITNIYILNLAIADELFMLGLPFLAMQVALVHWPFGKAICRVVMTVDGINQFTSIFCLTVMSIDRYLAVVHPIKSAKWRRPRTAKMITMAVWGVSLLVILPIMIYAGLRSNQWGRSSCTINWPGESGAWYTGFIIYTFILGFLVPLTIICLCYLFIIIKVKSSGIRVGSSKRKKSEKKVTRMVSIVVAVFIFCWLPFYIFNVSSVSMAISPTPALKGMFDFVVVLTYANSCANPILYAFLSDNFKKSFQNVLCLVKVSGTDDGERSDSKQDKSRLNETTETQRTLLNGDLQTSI

Turning to `C=Cc1c(C)c2cc3nc(c(CC(=O)O)c4[nH]c(cc5nc(cc1[nH]2)C(C)=C5CC)c(C)c4C(=O)O)[C@@H](CCC(=O)N[C@@H](CCCCN)C(=O)N[C@@H](CCCCN)C(=O)N[C@@H](CCCCN)C(=O)N[C@H](Cc1ccccc1)C(=O)N[C@H]1CSSC[C@@H](C(=O)N[C@H](C(=O)O)[C@@H](C)O)NC(=O)[C@H]([C@@H](C)O)NC(=O)[C@H](CCCCN)NC(=O)[C@@H](Cc2c[nH]c4ccccc24)NC(=O)[C@H](Cc2ccc(O)cc2)NC1=O)[C@@H]3C` [Conjugate 1, Ce6-K3-[Tyr3]-octreotate] (X1-KKK[dF]CY[dW]KTCT-OH; disulfide 5-10), in series [1], the photostability entry is on record as “higher photostability”. Also, the IC50 on sst2 (membrane preparations of K562 sst2+ cells, displacement by increasing concentrations of unlabeled compound, read-out: IC50, competition with specific binding of [125I]-SS14) came out at 68 nM. For the same molecule, the “pKa, inflection point of pH titration curve” value in [2] came to 5.38±0.0615. Moreover, the logD in series [3] (pH 7.4) came out at 0.679 ± 0.04.
Turning to `C=Cc1c(C)c2cc3nc(c(CC(=O)O)c4[nH]c(cc5nc(cc1[nH]2)C(C)=C5CC)c(C)c4C(=O)O)[C@@H](CCC(=O)N[C@H](Cc1ccccc1)C(=O)N[C@H]1CSSC[C@@H](C(=O)N[C@H](C(=O)N[C@@H](CCCCN)C(=O)N[C@@H](CCCCN)C(=O)N[C@@H](CCCCN)C(=O)N[C@H](Cc2ccccc2)C(=O)N[C@H]2CSSC[C@@H](C(=O)N[C@H](C(=O)O)[C@@H](C)O)NC(=O)[C@H]([C@@H](C)O)NC(=O)[C@H](CCCCN)NC(=O)[C@@H](Cc4c[nH]c5ccccc45)NC(=O)[C@H](Cc4ccc(O)cc4)NC2=O)[C@@H](C)O)NC(=O)[C@H]([C@@H](C)O)NC(=O)[C@H](CCCCN)NC(=O)[C@@H](Cc2c[nH]c4ccccc24)NC(=O)[C@H](Cc2ccc(O)cc2)NC1=O)[C@@H]3C` [Conjugate 2, Ce6-[Tyr3]-octreotate-K3-[Tyr3]-octreotate] (X1-[dF]CY[dW]KTCTKKK[dF]CY[dW]KTCT-OH; disulfide 2-7, 13-18), the “effect of Octreotide co-treatment (10^−5 M) on phototoxicity” value with K562 sst2+ cells [4] is listed as “not inhibited by Octreotide co-treatment”. The “kblA, rate constant of initial absorption bleaching” value in series [1] (PBS pH = 7.4, 652 nm irradiation at 5 mWcm^-2, O.D. = 0.014 at 652 nm, aerobic, stirring) is listed as 22.70 x 10^−2 J^−1 cm^2. For the same molecule, in [5], the “full width at half maximum of the Q(0,0) absorption band” value came out at 26 nm, the “full width at half maximum of the Soret absorption band” value is given as 42 nm, the “maximum of fluorescence band” value is reported as 665 nm and the “maximum of the Q(0,0) absorption band” value was found to be 661 nm. Moreover, the “maximum of the Soret absorption band” value in series [5] is 405 nm. Moreover, in series [5] (relative method, Ce6 (0.18) as reference, excitation 408 nm), the “ΦF, fluorescence quantum yield” value is reported as 0.03. For the same molecule, the “ΦΔ, singlet oxygen quantum yield” value in series [6] is on record as 0.59±0.03. The “fold higher potency than conjugate 1” value at sst2 (ratio of IC50 values, [125I]-SS14 displacement) is on record as around 5 ×. The “pKa, inflection point of pH titration curve” value in series [2] (Fmax/A(λexc) versus pH, sigmoidal fit, PBS titrated with HNO3 and NaOH over pH 4.0-8.5, 0.8 µM, λexc = 408 nm) is 6.28±0.035. Moreover, in [3] (1-octanol / PBS pH 7.4), the “fold higher accumulation in 1-octanol than in buffer” value was above 600 ×. In series [3] (1-octanol / PBS pH = 7.4, Poct/buffer = Coct/Cbuffer, stock 0.6 mM in DMSO, duplicates, read-out: LogP, logarithm of partition coefficient), the logD was determined as 2.82 ± 0.34. Moreover, the “PDT toxicity in K562 WT cells” value in the series with K562 WT cells was “comparable with the PDT activity on K562 sst2+ cells”. Besides, the “uptake in sst2+ cells compared to WT cells (factor)” value with K562 sst2+ cells [7] is “no difference”.

By IC50 is commonly meant the concentration at which inhibition is half-maximal.
